Experimental data published in PMC6690855.

Target: Caut-bCAstrepC (C-terminal STREPII-tagged β-class carbonic anhydrase of Clostridium autoethanogenum) (Clostridium autoethanogenum)
Assay: AUC; sedimentation velocity, 50,000 rpm, 2-fold protein dilution series starting at 0.7 mg/ml, absorbance at 280 nm and interference optics; SEDFIT c(s) and non-interacting discrete species (NIDS) models

stoichiometry N: 2
Substance: Caut-bCAstrepC (C-terminal STREPII-tagged β-class carbonic anhydrase of Clostridium autoethanogenum) (enzyme)
